Data published in WO2023182244A1 (dated 2023).

T1: HuNoV GII.2 VLP (VP1 of HuNoV GII.2 OSN201926, baculovirus-expressed virus-like particle) (human norovirus GII.2 (OSN201926), …)
T1 construct: VP1 gene cloned from HuNoV GII.2 (OSN201926), expressed by the baculovirus method as a VLP and purified by ultracentrifugation; also called HuNoV GII.2 VP1; HuNoV GII.2 VLP1
T1 chain: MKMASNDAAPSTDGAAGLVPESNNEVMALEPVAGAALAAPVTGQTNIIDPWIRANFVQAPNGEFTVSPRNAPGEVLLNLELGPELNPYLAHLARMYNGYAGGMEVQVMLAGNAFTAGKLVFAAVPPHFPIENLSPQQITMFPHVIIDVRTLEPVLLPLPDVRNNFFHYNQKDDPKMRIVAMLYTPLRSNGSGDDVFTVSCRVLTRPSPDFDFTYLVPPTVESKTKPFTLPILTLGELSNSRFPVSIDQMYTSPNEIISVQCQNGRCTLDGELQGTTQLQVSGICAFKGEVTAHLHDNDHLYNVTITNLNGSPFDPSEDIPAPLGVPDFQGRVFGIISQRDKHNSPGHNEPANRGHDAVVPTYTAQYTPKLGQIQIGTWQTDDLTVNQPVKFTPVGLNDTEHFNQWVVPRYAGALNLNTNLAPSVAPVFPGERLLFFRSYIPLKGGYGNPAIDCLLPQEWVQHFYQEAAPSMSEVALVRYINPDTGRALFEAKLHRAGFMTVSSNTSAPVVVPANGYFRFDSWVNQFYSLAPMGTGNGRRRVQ

B1: YGI-1B6 (VHH)
VHH: EVQLVESGGGLVQAGGSLRLSCAASGRTFSNYFMGWFRQAPGKEREFVAAISWSGGSTYYTDSVKGRFTISRDNAKNTMYLQMNTLKPEDTAVYYCAAEKASLSGPSYGLGLDFSRYDYWGQGTQVTVSS
notes: Llama VHH expressed in E. coli from pMEK222 (FLAG tag and His tag), purified on Co resin; also called VHH antibody YGI-1B6; not shown: FLAG tag and His tag from vector pMEK222; not clear whe
B2: YGI-1E10 (VHH)
VHH: EVQLVESGGGLVQAGGSLRLSCTAPKSIASFNSVGWYRQAPGKQRELVATITRSRTTNYADSARGRFTISRDNTKNMMFLQMNSLKPEDTAVYYCNARDIVPVFQTYWGQGTRVTVSS
notes: Llama VHH expressed in E. coli from pMEK222 (FLAG tag and His tag), purified on Co resin; also called VHH antibody YGI-1E10; not shown: FLAG tag and His tag from vector pMEK222; not clear whe
B3: YGI-1H3 (VHH)
VHH: EVQLVESGGGLVQAGGSLRLSCVVSGRSFSSLAMGWFRQAPGNQREFVAAISWSGGSSYYGDSVKGRFTISRDDAKNTVYLQMDSLKPEDTADYYCATEIVPKYDTAAYYKSQGAFGSWGQGTQVTVSS
notes: Llama VHH expressed in E. coli from pMEK222 (FLAG tag and His tag), purified on Co resin; also called VHH antibody YGI-1H3; not shown: FLAG tag and His tag from vector pMEK222; not clear whe
B4: YGI-1F4 (VHH)
VHH: EVQLVESGGGLVQAGGSLRLSCGASGRTFSNYAMGWFRQAPGKEREFVAAINWSGDKTDYADSVKGRFTISRDNVKNFVALQMNSLKPEDTAVYYCATEGGFPQFGSNLKRTSFGLWGQGTQVTVSS
notes: Llama VHH expressed in E. coli from pMEK222 (FLAG tag and His tag), purified on Co resin; also called VHH antibody YGI-1F4; not shown: FLAG tag and His tag from vector pMEK222; not clear whe
B5: YGI-1C5 (VHH)
VHH: EVQLVESGGGLVQTGGSLRLSCAASGLTFSNYAMGWFRQAPGKEREFVATINWSSSRTIYADSVKGRFTISREDAKNTVYLQMNSLKPEDTAVYYCAAEGGAPRWTTGTRRNDYRYWGQGTQVTVSS
notes: Llama VHH expressed in E. coli from pMEK222 (FLAG tag and His tag), purified on Co resin; also called VHH antibody YGI-1C5; not shown: FLAG tag and His tag from vector pMEK222; not clear whe

Target: T1, HuNoV GII.2 VLP (VP1 of HuNoV GII.2 …)
Assay: ELISA of E. coli periplasm fractions on HuNoV GII.2 VLP; clones selected by binding to the antigen
B1: binds.
B2: binds.
B3: binds.
B4: binds.
B5: binds.
